Experimental data taken from US20180371075A1.

Biological target: human IL-3 expressed by E. coli (Peprotech), non-glycosylated (human) (UniProt P08700)
Experiment: cell-based or functional assay

UniProt P08700, sequence (P08700 28-152, tags or fused parts left off): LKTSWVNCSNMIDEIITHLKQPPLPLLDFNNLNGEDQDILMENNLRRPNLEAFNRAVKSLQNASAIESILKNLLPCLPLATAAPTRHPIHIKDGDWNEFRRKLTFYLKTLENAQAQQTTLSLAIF

IC50, IL-3 dependent growth of TF1 cells: 0.033 µg/mL
Substance: R&D monoclonal anti-IL-3 antibody clone 4806 (R&D Systems, Inc., catalogue No. MAB203)
